Experimental data as given in the Human Domainome abundance scans (Beltran et al. 2025).
± gives the uncertainty stated by the source.

B1: 1-phosphatidylinositol 4,5-bisphosphate phosphodiesterase gamma-2, residues 772 to 827; numbered along this chain, P16885 (parent)
chain: RTVKALYDYKAKRSDELSFCRGALIHNVSKEPGGWWKGDYGTRIQQYFPSNYVEDI
B2: E3 ubiquitin-protein ligase NEDD4-like, residues 539 to 589; numbered along this chain, Q96PU5 (parent)
chain: KTSLNPNDLGPLPPGWEERIHLDGRTFYIDHNSKITQWEDPRLQNPAITGP

Variants of: B1
Experiment: abundance fitness (aPCA) (normalised: wild type 0, dead -1); higher = more abundant; growth selection in yeast, the domain comes from the species named
Conditions: Homo sapiens

Variant	abundance fitness
D55Y	-0.287 ± 0.15
D55G	-0.314 ± 0.074
D55P	-0.022 ± 0.092
D55A	-0.114 ± 0.069
D55F	-0.202 ± 0.09
D55Q	-0.281 ± 0.12
D55I	-0.365 ± 0.29
D55E	0.065 ± 0.089
D55C	-0.139 ± 0.049
D55N	-0.033 ± 0.065
D55S	-0.216 ± 0.081
D55L	-0.448 ± 0.12
D55H	-0.213 ± 0.1
D55V	-0.238 ± 0.06
D55M	0.086 ± 0.14
Y52G	-0.787 ± 0.11
Y52A	-0.092 ± 0.091
Y52F	0.022 ± 0.081
Y52C	-0.086 ± 0.064
Y52K	-0.138 ± 0.11
Y52E	-0.943 ± 0.47
Y52M	0.045 ± 0.071
Y52N	-0.605 ± 0.21
Y52S	-0.304 ± 0.066
Y52P	-0.892 ± 0.29
Y52I	-0.077 ± 0.16

Variant	abundance fitness
Y52H	-0.222 ± 0.097
Y52R	-0.295 ± 0.049
Y52T	0.01 ± 0.094
Y52W	-0.327 ± 0.089
Y52L	0.026 ± 0.049
Y52D	-0.98 ± 0.35
Y52Q	-0.281 ± 0.1
V53E	-0.934 ± 0.28
V53P	-1.02 ± 0.32
V53R	-0.836 ± 0.12
V53Q	-0.731 ± 0.35
V53A	-0.442 ± 0.093
V53T	-0.177 ± 0.091
V53G	-0.923 ± 0.073
V53D	-0.823 ± 0.25
V53K	-0.979 ± 0.15
V53F	-0.803 ± 0.37
V53M	-0.731 ± 0.22
V53H	-0.947 ± 0.34
V53L	-0.876 ± 0.12
Y47N	-0.256 ± 0.19
Y47M	-0.417 ± 0.19
Y47D	-0.763 ± 0.17
Y47I	-0.607 ± 0.25
Y47S	-0.293 ± 0.082
Y47H	-0.437 ± 0.18

Variant	abundance fitness
Y47L	0.002 ± 0.056
Y47R	0.076 ± 0.063
Y47F	-0.051 ± 0.085
Y47V	-0.34 ± 0.076
Y47G	-0.604 ± 0.098
Y47Q	-0.167 ± 0.15
Y47C	-0.401 ± 0.12
Y47E	-0.672 ± 0.21
F48L	-0.541 ± 0.13
F48N	-0.437 ± 0.4
F48P	-0.923 ± 0.093
F48R	-0.982 ± 0.21
F48T	-0.952 ± 0.12
F48A	-1.02 ± 0.16
F48M	-0.911 ± 0.15
F48W	-0.848 ± 0.16
F48S	-0.872 ± 0.11
F48E	-1.05 ± 0.23
F48V	-0.939 ± 0.19
S50P	-0.241 ± 0.081
S50Y	0.057 ± 0.098
S50L	-0.737 ± 0.13
S50R	0.035 ± 0.062
S50G	-0.093 ± 0.058
S50H	-0.163 ± 0.19
S50W	-0.412 ± 0.088

Variant	abundance fitness
S50Q	-0.398 ± 0.15
S50C	-0.18 ± 0.1
S50T	-0.352 ± 0.071
S50F	-0.181 ± 0.061
S50A	0.221 ± 0.095
S50K	0.103 ± 0.12
S50M	0.071 ± 0.1
S50D	-0.506 ± 0.12
S50I	-0.261 ± 0.096
N51L	-0.261 ± 0.057
N51G	-0.034 ± 0.044
N51Q	-0.129 ± 0.087
N51R	-0.057 ± 0.048
N51E	0.094 ± 0.065
N51A	-0.025 ± 0.058
N51F	-0.398 ± 0.33
N51I	-0.373 ± 0.25
N51Y	-0.155 ± 0.12
N51S	0.067 ± 0.059
N51M	-0.232 ± 0.092
N51H	0.208 ± 0.11
N51V	-0.134 ± 0.076
N51T	-0.025 ± 0.045
N51K	-0.076 ± 0.069
N51W	-0.022 ± 0.054
N51C	0.13 ± 0.089

Variant	abundance fitness
N51P	-0.425 ± 0.12
E54I	-0.353 ± 0.14
E54N	-0.196 ± 0.17
E54L	-0.434 ± 0.05
E54H	-0.272 ± 0.082
E54T	-0.256 ± 0.067
E54R	-0.125 ± 0.045
E54W	-0.55 ± 0.055
E54D	-0.291 ± 0.21
E54V	-0.244 ± 0.061
E54Y	-0.38 ± 0.15
E54C	-0.197 ± 0.094
E54G	-0.276 ± 0.055
E54A	-0.119 ± 0.053
E54M	-0.316 ± 0.17
E54F	-0.04 ± 0.12
E54Q	-0.392 ± 0.12
Q46Y	-0.223 ± 0.17
Q46P	-0.866 ± 0.27
Q46V	-0.653 ± 0.092
Q46W	-0.367 ± 0.086
Q46R	-0.175 ± 0.073
Q46T	-0.391 ± 0.097
Q46S	0.054 ± 0.077

Variants of: B2
Experiment: as above
Conditions: Homo sapiens

Variant	abundance fitness
L9S	-0.237 ± 0.36
L9F	-0.271 ± 0.31
L9V	-0.347 ± 0.32
G10L	-0.429 ± 0.043
G10W	-0.433 ± 0.048
G10T	-0.15 ± 0.074
G10M	-0.485 ± 0.07
G10K	-0.238 ± 0.078
G10Q	-0.276 ± 0.049
G10S	-0.268 ± 0.059
G10C	-0.28 ± 0.079
G10Y	-0.571 ± 0.12
G10V	-0.181 ± 0.045
G10D	-0.24 ± 0.058
G10N	0.139 ± 0.092
G10I	-0.508 ± 0.13
G10P	-0.347 ± 0.046
G10H	-0.53 ± 0.12
G10A	-0.076 ± 0.041
G10R	-0.263 ± 0.056
N5W	-0.538 ± 0.067
N5P	-0.487 ± 0.062
N5D	-0.407 ± 0.054

Variant	abundance fitness
N5L	-0.212 ± 0.055
N5C	-0.04 ± 0.08
N5M	0.01 ± 0.087
N5I	-0.256 ± 0.12
N5A	-0.167 ± 0.052
N5R	-0.293 ± 0.042
N5F	-0.135 ± 0.054
N5T	-0.203 ± 0.057
N5Q	-0.267 ± 0.085
N5H	0.008 ± 0.096
N5Y	-0.259 ± 0.11
N5K	-0.247 ± 0.072
N5V	-0.075 ± 0.061
N5S	-0.123 ± 0.049
N5E	0.019 ± 0.051
N5G	-0.175 ± 0.063
S3R	-0.338 ± 0.042
S3T	-0.175 ± 0.041
S3C	-0.339 ± 0.1
S3I	-0.162 ± 0.11
S3N	0.093 ± 0.065
S3W	-0.86 ± 0.086
S3G	-0.353 ± 0.041

Variant	abundance fitness
S3L	-0.345 ± 0.061
S3Q	-0.427 ± 0.07
S3K	-0.264 ± 0.08
S3D	-0.085 ± 0.064
S3Y	-0.046 ± 0.081
S3H	-0.223 ± 0.047
S3A	-0.412 ± 0.047
S3E	-0.363 ± 0.071
S3P	-0.308 ± 0.038
S3M	-0.193 ± 0.084
S3V	-0.353 ± 0.043
L4G	-0.12 ± 0.043
L4Y	-0.105 ± 0.1
L4H	-0.242 ± 0.1
L4N	-0.295 ± 0.094
L4W	-0.283 ± 0.045
L4S	-0.07 ± 0.048
L4P	-0.281 ± 0.061
L4E	-0.143 ± 0.076
L4F	-0.003 ± 0.081
L4V	-0.139 ± 0.044
L4T	-0.303 ± 0.071
L4I	-0.136 ± 0.1

Variant	abundance fitness
L4D	-0.108 ± 0.073
L4K	0.116 ± 0.066
L4R	-0.241 ± 0.047
L4Q	-0.024 ± 0.081
L4C	-0.252 ± 0.056
L4A	-0.205 ± 0.046
K1N	-0.041 ± 0.12
K1W	-1.08 ± 0.2
K1L	-0.313 ± 0.045
K1S	-0.19 ± 0.068
K1H	-0.704 ± 0.28
K1I	-0.062 ± 0.2
K1E	-0.473 ± 0.48
K1R	-0.12 ± 0.097
K1A	-0.774 ± 0.27
K1T	-0.328 ± 0.055
K1G	-1.01 ± 0.27
K1D	-0.201 ± 0.12
K1V	-0.885 ± 0.25
D8C	0.033 ± 0.083
D8S	-0.147 ± 0.047
D8M	-0.307 ± 0.088
D8A	-0.138 ± 0.057

Variant	abundance fitness
D8R	-0.034 ± 0.053
D8Q	-0.189 ± 0.053
D8P	-0.218 ± 0.057
D8F	-0.321 ± 0.092
D8W	-0.466 ± 0.053
D8K	-0.022 ± 0.063
D8I	-0.189 ± 0.051
D8L	-0.304 ± 0.044
D8N	0.013 ± 0.069
D8H	-0.194 ± 0.069
P14C	-0.1 ± 0.068
P14A	0.008 ± 0.066
P11E	-0.044 ± 0.067
P11A	0.022 ± 0.061
P11F	-0.426 ± 0.059
P11I	-0.322 ± 0.061
P11W	-0.613 ± 0.082
P11M	-0.232 ± 0.057
P11H	-0.586 ± 0.12
P11N	-0.177 ± 0.098
P11V	-0.221 ± 0.044
P11G	-0.19 ± 0.055
P11L	-0.41 ± 0.063

Variant	abundance fitness
P11C	-0.178 ± 0.056
P11Y	-0.601 ± 0.18
P11R	-0.168 ± 0.045
P11T	-0.127 ± 0.074
P11D	-0.025 ± 0.083
L12W	-0.72 ± 0.053
L12N	-0.534 ± 0.11
L12R	-0.864 ± 0.057
L12T	-0.427 ± 0.072
L12D	-0.736 ± 0.14
L12M	-0.121 ± 0.05
L12Q	-0.773 ± 0.1
L12H	-0.863 ± 0.17
L12A	-0.627 ± 0.044
L12P	-0.62 ± 0.12
L12G	-1.2 ± 0.044
L12V	-0.568 ± 0.048
L12Y	-0.788 ± 0.14
L12C	-0.824 ± 0.12
L12E	-0.563 ± 0.089
L12I	-0.488 ± 0.097
L12F	-0.088 ± 0.071
L12S	-0.695 ± 0.063

Variant	abundance fitness
P6I	0.077 ± 0.099
P6N	0.374 ± 0.1
P6D	0.159 ± 0.051
P6H	-0.237 ± 0.12
P6G	0.027 ± 0.053
P6K	0.146 ± 0.091
P6W	-0.176 ± 0.074
P6E	0.057 ± 0.048
P6Q	-0.199 ± 0.1
P6M	0.112 ± 0.088
P6T	0.144 ± 0.078
P6S	0.156 ± 0.057
P6R	0.015 ± 0.054
P6F	-0.123 ± 0.11
P6Y	-0.105 ± 0.12
T2C	-0.181 ± 0.3
T2K	-0.066 ± 0.072
T2R	-0.365 ± 0.069
T2S	-0.023 ± 0.046
T2D	0.142 ± 0.084
T2Q	-0.024 ± 0.096
T2N	0.374 ± 0.11
T2A	-0.223 ± 0.051

Variant	abundance fitness
T2G	-0.308 ± 0.056
T2W	-0.699 ± 0.062
T2E	-0.1 ± 0.061
T2I	0.067 ± 0.06
T2P	-0.341 ± 0.061
T2L	-0.158 ± 0.054
T2F	0.31 ± 0.09
T2Y	-0.001 ± 0.069
T2V	-0.344 ± 0.058
T2H	-0.385 ± 0.15
N7F	-0.11 ± 0.09
N7D	0.044 ± 0.08
N7R	-0.041 ± 0.042
N7H	-0.146 ± 0.059
N7T	-0.007 ± 0.042
N7G	0.005 ± 0.047
N7Y	-0.395 ± 0.099
N7P	-0.05 ± 0.084
N7V	-0.114 ± 0.059
N7Q	-0.137 ± 0.08
N7M	-0.02 ± 0.066
N7I	-0.169 ± 0.088
N7W	-0.4 ± 0.056

Variant	abundance fitness
N7S	-0.042 ± 0.048
N7E	0.001 ± 0.085
N7A	-0.01 ± 0.058
N7K	-0.063 ± 0.098
N7L	-0.212 ± 0.048
P13H	-1.04 ± 0.19
P13F	-0.616 ± 0.063
P13S	-0.605 ± 0.058
P13R	-0.698 ± 0.05
P13M	-0.799 ± 0.058
P13E	-0.506 ± 0.053
P13V	-1.1 ± 0.082
P13I	-0.933 ± 0.14
P13D	-0.322 ± 0.095
P13T	-1 ± 0.12
P13C	-0.766 ± 0.07
P13L	-0.745 ± 0.056
P13A	-0.495 ± 0.066
P13K	-0.559 ± 0.085
P13Y	-0.023 ± 0.1
P13N	-0.437 ± 0.12
P13Q	-0.585 ± 0.097
